The text below walks through data of IntAct's records for PubMed 30845169.

The chains are these.
B1: Centrosomal protein POC5 (Homo sapiens), Q8NA72 (parent)
chain: MSSDEEKYSLPVVQNDSSRGSSVSSNLQEEYEELLHYAIVTPNIEPCASQSSHPKGELVPDVRISTIHDILHSQGNNSEVRETAIEVGKGCDFHISSHSKTDESSPVLSPRKPSHPVMDFFSSHLLADSSSPATNSSHTDAHEILVSDFLVSDENLQKMENVLDLWSSGLKTNIISELSKWRLNFIDWHRMEMRKEKEKHAAHLKQLCNQINELKELQKTFEISIGRKDEVISSLSHAIGKQKEKIELMRTFFHWRIGHVRARQDVYEGKLADQYYQRTLLKKVWKVWRSVVQKQWKDVVERACQARAEEVCIQISNDYEAKVAMLSGALENAKAEIQRMQHEKEHFEDSMKKAFMRGVCALNLEAMTIFQNRNDAGIDSTNNKKEEYGPGVQGKEHSAHLDPSAPPMPLPVTSPLLPSPPAAVGGASATAVPSAASMTSTRAASASSVHVPVSALGAGSAATAASEEMYVPRVVTSAQQKAGRTITARITGRCDFASKNRISSSLAIMGVSPPMSSVVVEKHHPVTVQTIPQATAAKYPRTIHPESSTSASRSLGTRSAHTQSLTSVHSIKVVD

In the first assay the parent is B1. The settings on record: with tba4a_human TUBA4A.
For A429V, the “effect of a mutation on the interaction” value was “decreasing interaction strength”.

The variants in another assay derive from B1. The conditions noted are these: with tba4a_human TUBA4A. The source holds these as a separate data set.
Consider A429V, for which the “effect of a mutation on the interaction” value is on record as “disrupting interaction strength”.
